Test results reported in article PMC9482650, “Quantitative fragmentomics allow affinity mapping of interactomes” (Nature Communications, 2022).

Experiments:
Experiment in all cases: holdup assay
Design in all cases: key: below the threshold = too weak to quantify, mostly under pKd 3.1 to 4
[1] = biological target: T1, MPDZ_12, O75970
T1 sequence (O75970 1857-1958, limits assumed, looked up): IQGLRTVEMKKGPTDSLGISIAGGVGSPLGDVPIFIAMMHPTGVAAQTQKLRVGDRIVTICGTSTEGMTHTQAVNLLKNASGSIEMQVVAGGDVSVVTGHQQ

[2] = biological target: NHERF4_1, Q86UT5-2
[3] = biological target: T2, DFNB31_3, Q9P202
T2 sequence (Q9P202 811-907, limits assumed, looked up): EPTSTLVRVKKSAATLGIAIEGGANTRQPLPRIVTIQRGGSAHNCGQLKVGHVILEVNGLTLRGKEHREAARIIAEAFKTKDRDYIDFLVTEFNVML

[4] = biological target: T3, APBA2_1, Q99767
T3 sequence (Q99767 563-664, limits assumed, looked up): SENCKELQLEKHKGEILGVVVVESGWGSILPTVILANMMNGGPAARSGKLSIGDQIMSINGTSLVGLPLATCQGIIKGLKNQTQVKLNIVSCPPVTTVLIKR

[5] = biological target: T4, RHPN1, Q8TCX5
T4 sequence (Q8TCX5 508-602, limits assumed, looked up): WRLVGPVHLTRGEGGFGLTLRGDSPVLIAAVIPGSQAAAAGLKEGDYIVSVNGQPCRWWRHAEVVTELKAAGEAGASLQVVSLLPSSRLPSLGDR

[6] = biological target: T5, MPDZ_5, O75970
T5 sequence (O75970 695-796, limits assumed, looked up): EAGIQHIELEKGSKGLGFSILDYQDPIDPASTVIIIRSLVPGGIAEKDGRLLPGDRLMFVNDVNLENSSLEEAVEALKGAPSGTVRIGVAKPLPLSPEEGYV

[7] = biological target: T6, FRMPD1, Q5SYB0
T6 sequence (Q5SYB0 52-145, limits assumed, looked up): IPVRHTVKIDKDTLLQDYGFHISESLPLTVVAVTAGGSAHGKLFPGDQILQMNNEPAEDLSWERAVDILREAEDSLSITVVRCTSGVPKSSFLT

[8] = biological target: Inadl_8, Q8NI35
[9] = biological target: T7, LNX2_3, Q8N448
T7 sequence (Q8N448 463-564, limits assumed, looked up): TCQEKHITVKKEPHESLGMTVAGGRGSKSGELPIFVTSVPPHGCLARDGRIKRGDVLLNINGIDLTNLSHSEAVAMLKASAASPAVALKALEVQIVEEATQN

[10] = biological target: T8, PTPN13_1, Q12923
T8 sequence (Q12923 1088-1188, limits assumed, looked up): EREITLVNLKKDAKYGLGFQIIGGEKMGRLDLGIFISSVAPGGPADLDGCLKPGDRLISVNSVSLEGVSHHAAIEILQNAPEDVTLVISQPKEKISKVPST

[11] = biological target: T9, RAPGEF6, Q8TEU7
T9 sequence (Q8TEU7 525-625, limits assumed, looked up): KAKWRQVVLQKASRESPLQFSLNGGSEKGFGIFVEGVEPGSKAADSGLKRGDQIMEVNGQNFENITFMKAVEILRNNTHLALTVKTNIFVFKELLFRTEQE

[12] = biological target: MAGI2_2, Q86UL8
[13] = biological target: GRIP2_7, Q9C0E4
[14] = biological target: DLG2_2, Q15700
[15] = biological target: FRMPD2_3, Q68DX3
[16] = biological target: T10, GRIP1_2, Q9Y3R0
T10 sequence (Q9Y3R0 145-248, limits assumed, looked up): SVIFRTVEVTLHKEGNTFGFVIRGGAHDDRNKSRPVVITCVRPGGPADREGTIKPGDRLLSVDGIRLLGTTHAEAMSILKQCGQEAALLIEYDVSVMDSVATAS

[17] = biological target: T11, DLG3_3, Q92796
T11 sequence (Q92796 374-475, limits assumed, looked up): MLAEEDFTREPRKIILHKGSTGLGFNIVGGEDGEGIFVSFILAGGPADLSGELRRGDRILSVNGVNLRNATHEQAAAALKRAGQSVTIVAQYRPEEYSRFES

[18] = biological target: HTRA2, O43464
[19] = biological target: T12, PDZD2_2, O15018
T12 sequence (O15018 329-429, limits assumed, looked up): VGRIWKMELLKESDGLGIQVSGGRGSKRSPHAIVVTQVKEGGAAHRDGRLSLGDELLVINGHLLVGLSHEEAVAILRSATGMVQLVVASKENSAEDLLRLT

[20] = biological target: LNX1_2, Q8TBB1
[21] = biological target: GRIP2_3, Q9C0E4
[22] = biological target: SNX27, Q96L92
[23] = biological target: AHNAK1, Q09666
[24] = biological target: NOS1, P29475
[25] = plain residues with an end cap or a label only (N-terminal biotin on a linker: ado-ado)
[26] = plain residues with an end cap or a label only (N-terminal biotin on a linker: (peg)3)

Sequence of DLG2_2, Q15700 (Q15700 189-283): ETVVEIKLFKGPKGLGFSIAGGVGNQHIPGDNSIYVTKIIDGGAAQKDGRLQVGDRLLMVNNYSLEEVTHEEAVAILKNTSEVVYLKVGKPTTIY
Sequence of NOS1, P29475 (P29475 9-101): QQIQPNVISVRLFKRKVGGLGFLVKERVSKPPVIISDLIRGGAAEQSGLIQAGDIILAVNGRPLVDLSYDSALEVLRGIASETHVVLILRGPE
Sequence of HTRA2, O43464 (O43464 355-458): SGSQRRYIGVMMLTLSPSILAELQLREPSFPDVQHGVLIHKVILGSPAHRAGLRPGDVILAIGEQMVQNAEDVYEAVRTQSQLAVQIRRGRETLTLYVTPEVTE
Sequence of MAGI2_2, Q86UL8 (Q86UL8 410-522): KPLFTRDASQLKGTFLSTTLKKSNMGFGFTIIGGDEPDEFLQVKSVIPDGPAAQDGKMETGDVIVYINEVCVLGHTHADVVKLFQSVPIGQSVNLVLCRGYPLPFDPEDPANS
Sequence of NHERF4_1, Q86UT5-2 (Q86UT5 other isoform, or with tags, fused parts or gaps): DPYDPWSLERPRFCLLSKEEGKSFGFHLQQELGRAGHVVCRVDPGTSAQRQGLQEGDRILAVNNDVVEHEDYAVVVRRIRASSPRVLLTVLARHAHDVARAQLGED
Sequence of FRMPD2_3, Q68DX3 (Q68DX3 1073-1166): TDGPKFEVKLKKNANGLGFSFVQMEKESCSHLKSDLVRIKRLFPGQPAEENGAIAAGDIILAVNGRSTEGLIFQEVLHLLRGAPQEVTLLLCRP
Sequence of GRIP2_7, Q9C0E4 (Q9C0E4 934-1023): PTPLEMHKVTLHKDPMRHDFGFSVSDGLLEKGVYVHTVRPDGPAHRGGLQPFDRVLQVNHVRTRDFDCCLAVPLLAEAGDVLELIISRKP
Sequence of LNX1_2, Q8TBB1 (Q8TBB1 371-470): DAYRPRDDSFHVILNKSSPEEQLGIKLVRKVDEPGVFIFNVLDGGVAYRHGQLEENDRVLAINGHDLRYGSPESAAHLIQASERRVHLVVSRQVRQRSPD
Sequence of Inadl_8, Q8NI35 (Q8NI35 1425-1530): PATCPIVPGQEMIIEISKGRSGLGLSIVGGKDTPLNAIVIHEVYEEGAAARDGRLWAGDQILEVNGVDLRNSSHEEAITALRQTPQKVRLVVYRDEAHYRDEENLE
Sequence of GRIP2_3, Q9C0E4 (Q9C0E4 238-339): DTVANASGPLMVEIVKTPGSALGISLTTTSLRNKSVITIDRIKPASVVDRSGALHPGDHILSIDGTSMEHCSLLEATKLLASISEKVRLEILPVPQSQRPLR

B1: CES3, Q6UWW8 (peptide)
chain: QKNRKAQEDL
pKd [1, 25]: below the threshold
pKd [2, 25]: below the threshold
pKd [3, 25]: 4.05
pKd [4, 25]: below the threshold
pKd [5, 25]: below the threshold
pKd [6, 25]: below the threshold
pKd [7, 25]: below the threshold
pKd [8, 25]: below the threshold
pKd [9, 25]: below the threshold
pKd [10, 25]: below the threshold
pKd [11, 25]: below the threshold
pKd [12, 25]: below the threshold
pKd [13, 25]: below the threshold
pKd [14, 25]: below the threshold
pKd [15, 25]: below the threshold
pKd [16, 25]: below the threshold
pKd [17, 25]: below the threshold
pKd [18, 25]: below the threshold
pKd [19, 25]: below the threshold
pKd [20, 25]: below the threshold
pKd [21, 25]: below the threshold
pKd [22, 25]: below the threshold
pKd [23, 25]: below the threshold
pKd [24, 25]: below the threshold

B2: ATP2A2, P16615;P16615-3 (peptide)
chain: YLEPVLSSEL
pKd [2, 25]: 4.39
pKd [3, 25]: 4.03
pKd [4, 25]: below the threshold
pKd [5, 25]: 4.24
pKd [6, 25]: below the threshold
pKd [7, 25]: below the threshold
pKd [8, 25]: below the threshold
pKd [9, 25]: below the threshold
pKd [10, 25]: below the threshold
pKd [11, 25]: below the threshold
pKd [12, 25]: below the threshold
pKd [13, 25]: below the threshold
pKd [14, 25]: below the threshold
pKd [15, 25]: below the threshold
pKd [16, 25]: below the threshold
pKd [17, 25]: below the threshold
pKd [18, 25]: below the threshold
pKd [19, 25]: 4.41
pKd [20, 25]: below the threshold
pKd [21, 25]: below the threshold
pKd [22, 25]: 4.12
pKd [23, 25]: below the threshold
pKd [24, 25]: below the threshold

B3: PDLIM4_iso2, P50479;P50479-1 (peptide)
chain: VYPNAKVELV
pKd [1, 25]: below the threshold
pKd [2, 25]: 3.98
pKd [3, 25]: below the threshold
pKd [4, 25]: below the threshold
pKd [5, 25]: below the threshold
pKd [6, 25]: below the threshold
pKd [7, 25]: below the threshold
pKd [8, 25]: below the threshold
pKd [9, 25]: below the threshold
pKd [10, 25]: below the threshold
pKd [11, 25]: below the threshold
pKd [12, 25]: below the threshold
pKd [13, 25]: below the threshold
pKd [14, 25]: below the threshold
pKd [15, 25]: below the threshold
pKd [16, 25]: below the threshold
pKd [17, 25]: below the threshold
pKd [19, 25]: below the threshold
pKd [21, 25]: below the threshold
pKd [22, 25]: below the threshold
pKd [23, 25]: below the threshold
pKd [24, 25]: 4.05

B4: SARS-CoV-E, P59637 (peptide)
chain: NLNSSEGVPDLLV
pKd [1, 26]: below the threshold
pKd [2, 26]: below the threshold
pKd [3, 26]: below the threshold
pKd [4, 26]: below the threshold
pKd [5, 26]: below the threshold
pKd [6, 26]: below the threshold
pKd [7, 26]: below the threshold
pKd [8, 26]: 3.96
pKd [9, 26]: below the threshold
pKd [10, 26]: below the threshold
pKd [11, 26]: below the threshold
pKd [12, 26]: below the threshold
pKd [13, 26]: below the threshold
pKd [14, 26]: below the threshold
pKd [15, 26]: below the threshold
pKd [16, 26]: below the threshold
pKd [17, 26]: below the threshold
pKd [18, 26]: below the threshold
pKd [19, 26]: below the threshold
pKd [20, 26]: 4.06
pKd [21, 26]: below the threshold
pKd [22, 26]: below the threshold
pKd [23, 26]: below the threshold
pKd [24, 26]: below the threshold

B5: SLC34A1, Q06495;Q06495-1 (peptide)
chain: LPAHHNATRL
pKd [1, 25]: below the threshold
pKd [2, 25]: 4.01
pKd [3, 25]: below the threshold
pKd [4, 25]: below the threshold
pKd [6, 25]: below the threshold
pKd [7, 25]: below the threshold
pKd [9, 25]: below the threshold
pKd [10, 25]: below the threshold
pKd [11, 25]: below the threshold
pKd [13, 25]: below the threshold
pKd [14, 25]: below the threshold
pKd [15, 25]: below the threshold
pKd [16, 25]: below the threshold
pKd [17, 25]: below the threshold
pKd [18, 25]: below the threshold
pKd [19, 25]: below the threshold
pKd [20, 25]: below the threshold
pKd [21, 25]: below the threshold
pKd [22, 25]: 4.19
pKd [23, 25]: below the threshold
pKd [24, 25]: 4.09

B6: TRIM29, Q14134;Q14134-2 (peptide)
chain: KSGKQTMLVV
pKd [1, 25]: below the threshold
pKd [3, 25]: below the threshold
pKd [5, 25]: below the threshold
pKd [6, 25]: below the threshold
pKd [7, 25]: below the threshold
pKd [9, 25]: below the threshold
pKd [10, 25]: below the threshold
pKd [11, 25]: below the threshold
pKd [13, 25]: below the threshold
pKd [15, 25]: below the threshold
pKd [16, 25]: below the threshold
pKd [19, 25]: below the threshold
pKd [20, 25]: 4.23
pKd [21, 25]: below the threshold
pKd [23, 25]: below the threshold
pKd [24, 25]: below the threshold
